1 molecule from publication PMC10307831, “GATA zinc finger protein p66β promotes breast cancer cell migration by acting as a co-activator of Snail” can be followed below.

One data set deals with GST-Snail;Flag-p66β (human?;human?, UniProt O95863;Q8WXI9 1-264;1-593, |). Kind of data set: pull-down; p66β enhanced Snail binding; EMSA: 10 mM Tris pH 7.5, 50 mM KCl, 1 mM DTT, 5 mM MgCl2, 2.5% glycerol, 0.05% NP-40, 50 ng/ul poly(dI.dC), 600 fmol probe, 12 ug GST protein in 20 ul; gel 6% 0.5x TBE 4 C. Pull-down: NeutrAvidin beads, 8 h 4 C, washed in IP buffer (50 mM Tris pH 7.5, 150 mM NaCl, 1% Triton X-100). To be noted: protein: recombinant;recombinant; tags: N-terminal GST (pGEX-4T-1);Flag; label: biotin (probe); blunt. Background: Mobility shift assays separate free from complexed probe on a gel.

Data set [1] deals with GST-Snail-ΔZn (zinc finger mutant) (UniProt O95863 1-264, H176D;C180A;C210D;H230D;H252D;C259A). Kind of data set: pull-down; EMSA: 10 mM Tris pH 7.5, 50 mM KCl, 1 mM DTT, 5 mM MgCl2, 2.5% glycerol, 0.05% NP-40, 50 ng/ul poly(dI.dC), 600 fmol probe, 12 ug GST protein in 20 ul; gel 6% 0.5x TBE 4 C. Pull-down: NeutrAvidin beads, 8 h 4 C, washed in IP buffer (50 mM Tris pH 7.5, 150 mM NaCl, 1% Triton X-100). To be noted: protein: recombinant; tags: N-terminal GST; label: biotin (probe); blunt.
Chain of GST-Snail-ΔZn (zinc finger mutant) (O95863 whole entry H176D/C180A/C210D/H230D/H252D/C259A): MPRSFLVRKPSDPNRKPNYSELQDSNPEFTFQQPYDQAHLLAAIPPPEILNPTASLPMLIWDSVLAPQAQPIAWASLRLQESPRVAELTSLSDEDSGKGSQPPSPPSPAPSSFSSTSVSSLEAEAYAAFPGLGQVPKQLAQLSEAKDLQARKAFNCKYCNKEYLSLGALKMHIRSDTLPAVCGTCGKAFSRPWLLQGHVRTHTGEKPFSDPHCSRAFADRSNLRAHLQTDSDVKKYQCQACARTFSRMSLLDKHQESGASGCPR

Chain of GST-Snail;Flag-p66β (O95863 whole entry, chain 1 of 2): as the sequence (O95863 whole entry H176D/C180A/C210D/H230D/H252D/C259A) above, with D176H, A180C, D210C, D230H, D252H, A259C counted along it
Chain of GST-Snail;Flag-p66β (Q8WXI9 whole entry, chain 2 of 2): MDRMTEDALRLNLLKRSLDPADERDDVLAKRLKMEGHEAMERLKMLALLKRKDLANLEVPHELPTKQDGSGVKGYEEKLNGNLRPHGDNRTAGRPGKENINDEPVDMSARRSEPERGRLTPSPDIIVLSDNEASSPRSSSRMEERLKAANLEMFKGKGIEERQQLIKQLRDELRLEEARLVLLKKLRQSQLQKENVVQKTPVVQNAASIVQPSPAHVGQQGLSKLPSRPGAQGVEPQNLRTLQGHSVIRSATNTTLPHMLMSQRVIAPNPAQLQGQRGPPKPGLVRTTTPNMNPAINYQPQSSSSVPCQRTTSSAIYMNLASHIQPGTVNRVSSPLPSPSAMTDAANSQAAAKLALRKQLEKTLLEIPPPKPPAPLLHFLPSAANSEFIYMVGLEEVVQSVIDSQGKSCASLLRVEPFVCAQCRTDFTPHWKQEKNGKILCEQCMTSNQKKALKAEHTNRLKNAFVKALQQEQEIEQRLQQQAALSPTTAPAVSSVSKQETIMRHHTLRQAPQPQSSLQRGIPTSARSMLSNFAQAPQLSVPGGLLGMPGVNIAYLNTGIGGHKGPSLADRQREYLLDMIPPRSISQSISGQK

B1: COL6A2-G-box-WT (dsDNA)
DNA 1: GGCCCCCTCCTCCCATCCGCG
DNA 2: CGCGGATGGGAGGAGGGGGCC
As for B1, the binding result in the data set with GST-Snail;Flag-p66β is reported as “binds”; in data set [1] it was “no binding”.
